Experimental data reported in US20260069679A1.
Like-named read-outs stand apart in the source and are kept apart here.

Columns and labels:
[1] = biological target: MERS SS antigen (MERS-CoV EMC/2012) (UniProt K9N5Q8)
[2] = biological target: MERS SS antigen (MERS-CoV EMC/2012) (UniProt K9N5Q8); remark: listed apart in the source
[3] = biological target: MERS SS antigen (MERS-CoV EMC/2012) (UniProt K9N5Q8); assay: BLI, 1:1 fit
SS[change] = assay: BLI, 1:1 fit
SS-L2-Aferr = assay: BLI, 1:1 fit
[4] = biological target: MERS [change]\u0394RBD antigen (MERS-CoV EMC/2012); assay: BLI, 1:1 fit

Row | Substance | Kd [1] [pM] | maximum binding [2] [nm] | Kd [3] [pM] | kon [3] [M⁻¹ s⁻¹] | Kd (SS[change]) [pM] | kon (SS[change]) [M⁻¹ s⁻¹] | Kd (SS-L2-Aferr) [pM] | kon (SS-L2-Aferr) [M⁻¹ s⁻¹] | Kd [4] [pM] | kon [4] [M⁻¹ s⁻¹]
1 | G4 (antibody) | 550 | 0.43 | 8.1 | 52200 | 2.79 | 175000 | 2.38 | 205000 | 6.71 | 67400
2 | CC40.8 (antibody) | – | – | – | – | 1690 | 205000 | 312 | 229000 | – | –
